According to US20140336202:

Biological target: recombinant PP5 (UniProt P53041)
Sequence (P53041 whole entry): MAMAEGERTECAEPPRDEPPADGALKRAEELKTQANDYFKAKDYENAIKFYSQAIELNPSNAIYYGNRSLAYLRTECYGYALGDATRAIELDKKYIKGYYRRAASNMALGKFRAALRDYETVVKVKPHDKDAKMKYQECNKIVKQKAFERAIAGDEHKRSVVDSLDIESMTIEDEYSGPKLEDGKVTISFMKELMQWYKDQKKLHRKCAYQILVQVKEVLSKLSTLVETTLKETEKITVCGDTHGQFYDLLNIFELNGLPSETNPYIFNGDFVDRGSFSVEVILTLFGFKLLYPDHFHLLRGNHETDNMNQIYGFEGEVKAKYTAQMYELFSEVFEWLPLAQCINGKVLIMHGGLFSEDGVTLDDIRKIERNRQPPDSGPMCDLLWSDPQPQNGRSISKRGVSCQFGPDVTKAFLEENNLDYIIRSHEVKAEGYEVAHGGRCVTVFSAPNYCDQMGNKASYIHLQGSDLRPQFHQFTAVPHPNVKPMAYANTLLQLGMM

Substance: recombinant Huwe1 C4341S mutant (Huwe1 C/S)
- in vitro ubiquitylation of PP5 (immunoblot for PP5): wild type recombinant Huwe1 protein, but not Huwe1(C/S), ubiquitylated recombinant PP5 in vitro

Substance: recombinant Huwe1 wild type
- in vitro ubiquitylation of PP5 (immunoblot for PP5): in the presence of both E1 and E2, wild type recombinant Huwe1 protein, but not Huwe1(C/S), ubiquitylated recombinant PP5 in vitro
